Laboratory results: patent publication US20110165145A1 (published 2011)

B1: M0070-H08 Fab (Fab, V domains shown)
VH: EVQLLESGGGLVQPGGSLRLSCAASGFTFSRYWMIWVRQAPGKGLEWVSSIRSSGETKYADSVKGRFTISRDNSKNTLYLQMNSLRAEDTAVYYCARGPLSDYYDSSGYYFDAFDIWGQGTMVTVSS
VL: DIQMTQSPSSLSASAGDRVTITCRASQSISSYLNWYQQKPGKAPNLLIYTTSNLQGGVPSRFSGSGSGTDFTLTISSLQPEDFATYYCQQGYSFPLTFGGGTKVEIKR
notes: soluble Fab (sFab); also called R0032-A07
B2: M0072-C06 Fab (Fab, V domains shown)
VH: EVQLLESGGGLVQPGGSLRLSCAASGFTFSAYIMTWVRQAPGKGLEWVSSISPSGGYTVYADSVKGRFTISRDNSKNTLYLQMNSLRAEDTAVYYCARDSGFGDPFDYWGQGTMVTVSS
VL: DIQMTQSPSSLSASVGDRVTITCRASQSIRNYLNWYQQKPGKAPKLLIYAASKLEDGVPSRFSGSGTGTDFTLTIRSLQPEDFASYFCQQSYSSPGITFGPGTKVEIKR
notes: soluble Fab (sFab); also called R0032-A09
B3: M0072-E03 Fab (Fab, V domains shown)
VH: EVQLLESGGGLVQPGGSLRLSCAASGFTFSEYEMSWVRQAPGKGLEWVSSIYSSGGWTKYTDSVKGRFTISRDNSKNTLYLQMNSLRAEDTAVYYCAKGVHYDSSGLPIDWYFDLWGRGTLVTVSS
VL: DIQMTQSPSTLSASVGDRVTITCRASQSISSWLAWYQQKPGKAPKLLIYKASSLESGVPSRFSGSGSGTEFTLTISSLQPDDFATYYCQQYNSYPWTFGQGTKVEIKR
notes: soluble Fab (sFab); also called R0032-C03
B4: M0072-G06 Fab (Fab, V domains shown)
VH: EVQLLESGGGLVQPGGSLRLSCAASGFTFSEYVMWWVRQAPGKGLEWVSVISPSGGYTVYADSVKGRFTISRDNSKNTLYLQMNSLRAEDTAVYYCARDRGGATTLDYWGQGTLVTVSS
VL: DIQMTQSPSTLSASVGDRVTITCRASQTISSWLAWYQQKPGKAPKLMIYKAASLGSEVPSRFSGSGSGTEFTLTISSLQPEDFSTYYCQQYKTYPVTFGQGTRLEIKR
notes: soluble Fab (sFab); also called R0032-C05
B5: M0080-G03 Fab (Fab, V domains shown)
VH: EVQLLESGGGLVQPGGSLRLSCAASGFTFSFYQMMWVRQAPGKGLEWVSSISPSGGRTYYADSVKGRFTISRDNSKNTLYLQMNSLRAEDTAVYYCAKDIGLGYCSSTSCYTGTPLDYWGQGTLVTVSS
VL: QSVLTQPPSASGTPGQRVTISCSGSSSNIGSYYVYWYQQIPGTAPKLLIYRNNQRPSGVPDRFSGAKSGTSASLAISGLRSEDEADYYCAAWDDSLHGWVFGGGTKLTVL
B6: M0073-C11 Fab (Fab, V domains shown)
VH: EVQLLESGGGLVQPGGSLRLSCAASGFTFSPYDMWWVRQAPGKGLEWVSSISSSGGITAYADSVKGRFTISRDNSKNTLYLQMNSLRAEDTAVYYCARAGYSSSWGYYYYGMDVWGQGTTVTVSS
VL: QSALTQPPSVSVSPGQTASITCSGDRLGDKYASWYQQKPGQSPVLVIYQDTKRPSGIPERFSGSNSGSTATLTISGTQAMDEADYYCQAWDSSTVVFGGGTKLTVL
B7: M0070-H08 IgG (parental) (antibody, V domains shown)
VH: B1 VH
VL: DIQMTQSPSSLSASAGDRVTITCRASQSISSYLNWYQQKPGKAPNLLIYTTSNLQGGVPSRFSGSGSGTDFTLTISSLQPEDFATYYCQQGYSFPLTFGGGTKVEIK
B8: M0072-C06 IgG (parental) (antibody, V domains shown)
VH: B2 VH
VL: DIQMTQSPSSLSASVGDRVTITCRASQSIRNYLNWYQQKPGKAPKLLIYAASKLEDGVPSRFSGSGTGTDFTLTIRSLQPEDFASYFCQQSYSSPGITFGPGTKVEIK
B9: M0072-E03 IgG (parental) (antibody, V domains shown)
VH: B3 VH
VL: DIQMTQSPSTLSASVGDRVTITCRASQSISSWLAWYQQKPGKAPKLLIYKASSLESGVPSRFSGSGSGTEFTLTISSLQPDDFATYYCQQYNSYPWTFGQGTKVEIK
B10: M0072-G06 IgG (parental) (antibody, V domains shown)
VH: B4 VH
VL: DIQMTQSPSTLSASVGDRVTITCRASQTISSWLAWYQQKPGKAPKLMIYKAASLGSEVPSRFSGSGSGTEFTLTISSLQPEDFSTYYCQQYKTYPVTFGQGTRLEIK
B11: M0068-E03 Fab (Fab, V domains shown)
VH: EVQLLESGGGLVQPGGSLRLSCAASGFTFSEYVMAWVRQAPGKGLEWVSSIVSSGGYTKYADSVKGRFTISRDNSKNTLYLQMNSLRAEDTAVYYCAKDMTYSGDAFDVWGQGTMVTVSS
VL: DIQMTQSPSSLSASVGDRVTITCRASQSINTYLNWYQQKPGKAPKVLIHAASTLESGVPSRFSGSGSATEFTLTISSLQPEDFATFYCQQSYSVPFTFGPGTRLSSKR
notes: soluble Fab (sFab); heavy constant part carries His6 and myc tags; also called R0032-C01
B12: M0033-E05 Fab (Fab, V domains shown)
VH: EVQLLESGGGLVQPGGSLRLSCAASGFTFSHYSMWWVRQAPGKGLEWVSYIGPSGGHTRYADSVKGRFTISRDNSKNTLYLQMNSLRAEDTAVYYCARGLYYYDSSSVTHAFDLWGQGTMVTVSS
VL: DIQMTQSPSSLSASVGDRVTISCRASQGITNYLVWFQQKPGKAPRLLIYDASTLESGVPSRFSGSGSGTDFTLTISSLQPEDFATYYCQQADGFPLTFGEGTKVEMKR
notes: soluble Fab (sFab); also called R0032-A05

Each binder was assayed against T1, insulin-like growth factor II (IGF-II), amino acids 1-67 (human, UniProt P01344 25-91) (assay: competition SPR (BIACORE T100), affinity in solution, free ligand read on huIR-A ECD; measurement 1).
T1 construct: recombinant; also called IGF-II (67aa); IGF2
T1 sequence (P01344 25-91): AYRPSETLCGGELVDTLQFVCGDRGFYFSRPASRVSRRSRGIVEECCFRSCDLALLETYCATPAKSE
Experimental: (§1) Competition SPR (BIACORE®) was performed under conditions of partially mass-transport limited conditions according to previously described methodology (Nieba et al., 1996). Approximately 16,700 relative response units (RU) of huIR-A (-exon11) ectodomain was coupled by standard amine chemistry to a BIACORE® CM5 chip sensor. Uncoated flow-cell surface was used as a reference. […] Regeneration of the surface was achieved by injection of 30 ul NaCltrate/NaCl pH 4.5. […] These Req estimates were subsequently plotted against total concentrations of Fab used and the resulting inhibition curve was utilised to calculate dissociation constant (KD).

Binder	Kd [nM]
B1	3.24
B2	1.64
B3	2.62
B4	3.99

The binders below were run against T2, IGF-IIE (amino acids 1-104 of pro-IGF-II) (human, UniProt P01344 25-128) in the same assay as above.
T2 construct: Biotinylated in the selections; also called IGF-IIE (104aa)
T2 sequence (P01344 25-128): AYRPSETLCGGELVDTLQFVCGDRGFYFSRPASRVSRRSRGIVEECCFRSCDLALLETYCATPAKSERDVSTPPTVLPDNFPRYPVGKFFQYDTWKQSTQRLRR
Experimental: as §1

Binder	Kd [nM]
B1	4.83
B2	3.95
B5	29.3
B3	5.32
B6	20.2
B4	6.36

The binders below were run against T1, insulin-like growth factor II (IGF-II), … (assay: SPR, IgG on Protein G', then ligand, then BP; competitor BP2; 0 = no significant competition, 5 = competes strongly).
Experimental: (§2) BIACORE® T100 and a CM5 chip coated with Protein G were utilised to set up following assay. Approximately 1000 RU of Protein G′ was immobilized on a CM5 chip using standard amine chemistry immobilization method.
(§3) 4) Protein G′ surface was finally regenerated by injection of 10 mM Glycine pH 1.5-injected at 30 ul/min for 60 sec.

Binder	competition score [score 0-5]
B7	3
B8	3
B9	4
B10	2

Each binder was assayed against T2, IGF-IIE (amino acids 1-104 of …) in the same assay as above.
Experimental: as §2, §3

Binder	competition score [score 0-5]
B7	2
B8	2
B9	3
B10	2

These binders were tested against T1, insulin-like growth factor II (IGF-II), … (assay: SPR, IgG on Protein G', then ligand, then BP; competitor BP4; 0 = no significant competition, 5 = competes strongly).
Experimental: as §2, §3

Binder	competition score [score 0-5]
B7	2
B8	2
B9	4
B10	1

Each binder was assayed against T2, IGF-IIE (amino acids 1-104 of …) in the same assay as above.
Experimental: as §2, §3

Binder	competition score [score 0-5]
B7	1
B8	1
B9	3
B10	1

The binders below were run against T1, insulin-like growth factor II (IGF-II), … (assay: SPR (Flexchip), Fab, 1st of duplicate).

Binder	Kd [nM]
B11	0.93
B1	3.3
B2	5.2
B3	0.75
B4	0.58

Each binder was assayed against T2, IGF-IIE (amino acids 1-104 of …) (assay: SPR (Flexchip), Fab, 1st of duplicate).

Binder	Kd [nM]
B11	0.66
B1	0.36
B12	0.87
B2	0.52
B3	0.096
B4	0.56

The binders below were run against T1, insulin-like growth factor II (IGF-II), … (assay: competition SPR (BIACORE T100), affinity in solution, free ligand read on huIR-A ECD; measurement 2).
Experimental: as §1

Binder	Kd [nM]
B2	2.52

Each binder was assayed against T2, IGF-IIE (amino acids 1-104 of …) in the same assay as above.
Experimental: as §1

Binder	Kd [nM]
B2	1.05
B5	21.2
B6	19.1

These binders were tested against insulin-like growth factor I (IGF-I) (UniProt P05019 49-118) (assay: cell-based or functional assay).
insulin-like growth factor I (IGF-I), sequence (P05019 49-118 limits assumed): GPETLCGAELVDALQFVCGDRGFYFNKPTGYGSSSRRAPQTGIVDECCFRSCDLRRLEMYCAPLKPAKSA

Binder	IGF-I stimulated Ba/F3 cell proliferation, sFab at 50 µg/ml [% inhibition]
B11	~30
B2	~30
B3	~30
B4	~30

The binders below were run against T1, insulin-like growth factor II (IGF-II), … (assay: cell-based or functional assay).

Binder	IC50, IGF-II stimulated Ba/F3 cell proliferation (MTS) [µg/mL]
B11	2.27
B2	5.12
B4	8.7

These binders were tested against T2, IGF-IIE (amino acids 1-104 of …) (assay: cell-based or functional assay).

Binder	IC50, IGF-IIE stimulated Ba/F3 cell proliferation (MTS) [µg/mL]
B11	5.74
B2	2.3
B4	2.5

These binders were tested against T1, insulin-like growth factor II (IGF-II), … (assay: SPR (Flexchip), Fab, 2nd of duplicate).

Binder	Kd [nM]
B1	1.1
B12	5.5
B2	0.7
B3	0.3
B4	1.4

The binders below were run against T2, IGF-IIE (amino acids 1-104 of …) (assay: SPR (Flexchip), Fab, 2nd of duplicate).

Binder	Kd [nM]
B1	0.39
B3	0.22
B4	0.89
